B1: Transmembrane protein 43 (Homo sapiens), Q9BTV4 (parent)
chain: MAANYSSTSTRREHVKVKTSSQPGFLERLSETSGGMFVGLMAFLLSFYLIFTNEGRALKTATSLAEGLSLVVSPDSIHSVAPENEGRLVHIIGALRTSKLLSDPNYGVHLPAVKLRRHVEMYQWVETEESREYTEDGQVKKETRYSYNTEWRSEIINSKNFDREIGHKNPSAMAVESFMATAPFVQIGRFFLSSGLIDKVDNFKSLSLSKLEDPHVDIIRRGDFFYHSENPKYPEVGDLRVSFSYAGLSGDDPDLGPAHVVTVIARQRGDQLVPFSTKSGDTLLLLHHGDFSAEEVFHRELRSNSMKTWGLRAAGWMAMFMGLNLMTRILYTLVDWFPVFRDLVNIGLKAFAFCVATSLTLLTVAAGWLFYRPLWALLIAGLALVPILVARTRVPAKKLE
partner: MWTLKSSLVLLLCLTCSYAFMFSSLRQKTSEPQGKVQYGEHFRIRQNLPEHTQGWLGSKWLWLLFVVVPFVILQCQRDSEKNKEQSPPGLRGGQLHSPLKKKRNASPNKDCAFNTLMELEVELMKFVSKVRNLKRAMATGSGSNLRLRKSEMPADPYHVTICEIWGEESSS
B2: Golgi SNAP receptor complex member 2 (Homo sapiens), O14653 (parent)
chain: MDPLFQQTHKQVHEIQSCMGRLETADKQSVHIVENEIQASIDQIFSRLERLEILSSKEPPNKRQNARLRVDQLKYDVQHLQTALRNFQHRRHAREQQERQREELLSRTFTTNDSDTTIPMDESLQFNSSLQKVHNGMDDLILDGHNILDGLRTQRLTLKGTQKKILDIANMLGLSNTVMRLIEKRAFQDKYFMIGGMLLTCVVMFLVVQYLT
partner: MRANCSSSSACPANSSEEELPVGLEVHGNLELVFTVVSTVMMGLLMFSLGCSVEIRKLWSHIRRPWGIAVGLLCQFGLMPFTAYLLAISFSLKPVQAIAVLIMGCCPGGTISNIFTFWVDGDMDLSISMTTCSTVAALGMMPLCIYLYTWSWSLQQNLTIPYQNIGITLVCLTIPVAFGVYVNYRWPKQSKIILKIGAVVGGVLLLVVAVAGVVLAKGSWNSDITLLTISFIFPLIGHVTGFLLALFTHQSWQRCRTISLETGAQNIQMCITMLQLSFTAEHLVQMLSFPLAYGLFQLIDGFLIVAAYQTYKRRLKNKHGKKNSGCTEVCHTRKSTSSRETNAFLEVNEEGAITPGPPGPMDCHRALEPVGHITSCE
B3: Golgi SNAP receptor complex member 2 (Homo sapiens), O14653 (parent)
chain: B2 chain
partner: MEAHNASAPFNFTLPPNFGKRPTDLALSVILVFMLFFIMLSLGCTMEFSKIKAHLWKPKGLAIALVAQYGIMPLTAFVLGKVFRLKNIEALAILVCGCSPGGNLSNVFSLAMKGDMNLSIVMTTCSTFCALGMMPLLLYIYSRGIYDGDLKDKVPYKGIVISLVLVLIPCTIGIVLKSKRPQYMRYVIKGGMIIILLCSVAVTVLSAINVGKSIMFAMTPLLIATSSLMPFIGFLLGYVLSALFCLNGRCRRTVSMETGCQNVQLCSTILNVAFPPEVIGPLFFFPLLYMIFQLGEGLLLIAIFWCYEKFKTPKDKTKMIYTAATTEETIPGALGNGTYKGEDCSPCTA
B4: Catenin alpha-3 (Homo sapiens), Q9UI47-2 (parent)
chain: MSAETPITLNIDPQDLQVQTFTVEKLLEPLIIQVTTLVNCPQNPSSRKKGRSKRASVLLASVEEATWNLLDKGEKIAQEATVLKDELTASLEEVRKESEALKVSAERFTDDPCFLPKREAVVQAARALLAAVTRLLILADMIDVMCLLQHVSAFQRTFESLKNVANKSDLQKTYQKLGKELENLDYLAFKRQQDLKSPNQRDEIAGARASLKENSPLLHSICSACLEHSDVASLKASKDTVCEEIQNALNVISNASQGIQNMTTPPEPQAATLGSALDELENLIVLNPLTVTEEEIRPSLEKRLEAIISGAALLADSSCTRDLHRERIIAECNAIRQALQDLLSEYMNNAGKKERSNTLNIALDNMCKKTRDLRRQLRKAIIDHVSDSFLDTTVPLLVLIEAAKNGREKEIKEYAAIFHEHTSRLVEVANLACSMSTNEDGIKIVKIAANHLETLCPQIINAALALAARPKSQAVKNTMEMYKRTWENHIHVLTEAVDDITSIDDFLAVSGMFLFF
partner: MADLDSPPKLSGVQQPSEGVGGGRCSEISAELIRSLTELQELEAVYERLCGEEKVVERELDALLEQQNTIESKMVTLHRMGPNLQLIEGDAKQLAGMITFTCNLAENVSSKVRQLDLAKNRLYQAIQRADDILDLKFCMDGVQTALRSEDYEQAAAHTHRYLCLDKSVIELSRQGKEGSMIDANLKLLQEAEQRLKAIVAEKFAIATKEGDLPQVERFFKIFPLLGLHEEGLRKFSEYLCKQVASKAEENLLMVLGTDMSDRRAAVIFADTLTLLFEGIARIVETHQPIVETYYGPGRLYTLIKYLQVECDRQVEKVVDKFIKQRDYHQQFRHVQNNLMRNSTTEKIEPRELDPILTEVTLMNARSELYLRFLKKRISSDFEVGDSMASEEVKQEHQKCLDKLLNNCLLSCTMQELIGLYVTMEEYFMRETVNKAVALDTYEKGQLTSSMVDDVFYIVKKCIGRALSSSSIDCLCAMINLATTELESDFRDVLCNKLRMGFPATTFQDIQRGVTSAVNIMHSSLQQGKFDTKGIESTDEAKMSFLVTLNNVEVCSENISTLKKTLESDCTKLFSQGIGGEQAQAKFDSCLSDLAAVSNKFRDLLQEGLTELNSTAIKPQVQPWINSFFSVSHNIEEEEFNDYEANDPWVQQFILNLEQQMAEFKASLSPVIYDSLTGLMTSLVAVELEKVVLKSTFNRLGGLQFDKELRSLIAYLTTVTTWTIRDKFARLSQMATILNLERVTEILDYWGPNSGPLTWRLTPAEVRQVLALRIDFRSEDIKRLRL
B5: Ceroid-lipofuscinosis neuronal protein 6 (Homo sapiens), Q9NWW5 (parent)
chain: MEATRRRQHLGATGGPGAQLGASFLQARHGSVSADEAARTAPFHLDLWFYFTLQNWVLDFGRPIAMLVFPLEWFPLNKPSVGDYFHMAYNVITPFLLLKLIERSPRTLPRSITYVSIIIFIMGASIHLVGDSVNHRLLFSGYQHHLSVRENPIIKNLKPETLIDSFELLYYYDEYLGHCMWYIPFFLILFMYFSGCFTASKAESLIPGPALLLVAPSGLYYWYLVTEGQIFILFIFTFFAMLALVLHQKRKRLFLDSNGLFLFSSFALTLLLVALWVAWLWNDPVLRKKYPGVIYVPEPWAFYTLHVSSRH
partner: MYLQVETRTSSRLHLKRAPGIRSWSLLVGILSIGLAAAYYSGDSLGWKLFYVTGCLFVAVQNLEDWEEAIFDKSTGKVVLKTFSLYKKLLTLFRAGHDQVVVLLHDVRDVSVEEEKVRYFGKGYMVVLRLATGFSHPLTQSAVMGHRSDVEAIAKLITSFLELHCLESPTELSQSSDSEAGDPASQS
B6: Dolichol kinase (Homo sapiens), Q9UPQ8 (parent)
chain: MTRECPSPAPGPGAPLSGSVLAEAAVVFAVVLSIHATVWDRYSWCAVALAVQAFYVQYKWDRLLQQGSAVFQFRMSANSGLLPASMVMPLLGLVMKERCQTAGNPFFERFGIVVAATGMAVALFSSVLALGITRPVPTNTCVILGLAGGVIIYIMKHSLSVGEVIEVLEVLLIFVYLNMILLYLLPRCFTPGEALLVLGGISFVLNQLIKRSLTLVESQGDPVDFFLLVVVVGMVLMGIFFSTLFVFMDSGTWASSIFFHLMTCVLSLGVVLPWLHRLIRRNPLLWLLQFLFQTDTRIYLLAYWSLLATLACLVVLYQNAKRSSSESKKHQAPTIARKYFHLIVVATYIPGIIFDRPLLYVAATVCLAVFIFLEYVRYFRIKPLGHTLRSFLSLFLDERDSGPLILTHIYLLLGMSLPIWLIPRPCTQKGSLGGARALVPYAGVLAVGVGDTVASIFGSTMGEIRWPGTKKTFEGTMTSIFAQIISVALILIFDSGVDLNYSYAWILGSISTVSLLEAYTTQIDNLLLPLYLLILLMA
partner: B1 partner
B7: Ceroid-lipofuscinosis neuronal protein 6 (Homo sapiens), Q9NWW5 (parent)
chain: B5 chain
partner: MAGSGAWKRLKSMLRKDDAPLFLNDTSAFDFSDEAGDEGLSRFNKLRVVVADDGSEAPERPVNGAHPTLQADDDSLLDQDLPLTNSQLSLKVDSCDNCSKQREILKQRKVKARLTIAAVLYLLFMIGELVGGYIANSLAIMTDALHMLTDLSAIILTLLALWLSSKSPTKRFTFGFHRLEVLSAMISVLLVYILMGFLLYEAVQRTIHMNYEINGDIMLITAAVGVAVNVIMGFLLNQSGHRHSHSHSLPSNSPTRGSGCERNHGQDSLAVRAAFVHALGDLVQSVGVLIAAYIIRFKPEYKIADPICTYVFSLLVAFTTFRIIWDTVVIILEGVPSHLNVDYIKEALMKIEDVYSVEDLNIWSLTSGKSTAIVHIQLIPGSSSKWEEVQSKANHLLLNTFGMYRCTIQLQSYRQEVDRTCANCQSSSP
B8: Golgi SNAP receptor complex member 2 (Homo sapiens), O14653 (parent)
chain: B2 chain
partner: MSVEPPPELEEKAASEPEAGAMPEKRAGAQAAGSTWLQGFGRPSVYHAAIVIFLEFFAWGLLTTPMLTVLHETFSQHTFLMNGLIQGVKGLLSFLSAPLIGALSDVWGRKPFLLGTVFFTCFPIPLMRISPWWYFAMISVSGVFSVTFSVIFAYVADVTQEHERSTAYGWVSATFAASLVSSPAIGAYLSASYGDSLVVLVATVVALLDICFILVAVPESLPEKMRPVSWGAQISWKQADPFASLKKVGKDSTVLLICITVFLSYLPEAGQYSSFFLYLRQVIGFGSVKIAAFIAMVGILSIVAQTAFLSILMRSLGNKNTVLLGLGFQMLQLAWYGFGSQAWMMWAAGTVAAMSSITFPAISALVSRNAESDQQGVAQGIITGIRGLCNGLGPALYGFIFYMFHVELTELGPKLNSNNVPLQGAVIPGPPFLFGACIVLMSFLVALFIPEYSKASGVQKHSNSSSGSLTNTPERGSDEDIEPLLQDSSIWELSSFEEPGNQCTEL
B9: Catenin alpha-3 (Homo sapiens), Q9UI47-2 (parent)
chain: B4 chain
partner: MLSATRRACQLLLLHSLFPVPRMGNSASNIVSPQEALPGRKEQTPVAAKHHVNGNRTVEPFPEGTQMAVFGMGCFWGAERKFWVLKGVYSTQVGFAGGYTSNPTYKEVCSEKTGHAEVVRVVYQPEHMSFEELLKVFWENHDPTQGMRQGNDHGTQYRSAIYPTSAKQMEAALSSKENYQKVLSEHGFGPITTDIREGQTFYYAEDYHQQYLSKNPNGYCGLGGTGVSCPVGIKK
B10: Ceroid-lipofuscinosis neuronal protein 6 (Homo sapiens), Q9NWW5 (parent)
chain: B5 chain
partner: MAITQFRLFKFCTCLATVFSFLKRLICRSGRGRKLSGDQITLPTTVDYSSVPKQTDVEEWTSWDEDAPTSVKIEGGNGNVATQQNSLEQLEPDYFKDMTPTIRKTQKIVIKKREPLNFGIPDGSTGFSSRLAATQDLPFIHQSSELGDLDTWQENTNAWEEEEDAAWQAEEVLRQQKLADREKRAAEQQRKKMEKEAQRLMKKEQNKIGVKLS

One test covers variants of B1. Conditions: with FAM209A.
Take Y371H: the “effect of a mutation on the interaction” value is “with no effect”. Still for that read-out and setting: the entry for E142K is “disrupting interaction strength”; for R28W it is “with no effect”; for E85K it is “disrupting interaction strength”. Regarding I91V, the “effect of a mutation on the interaction” value is “with no effect”.

In another test the parent is B2. The conditions noted are these: with soat_human SLC10A6, Q3KNW5.
For G144W, the “effect of a mutation on the interaction” value was “with no effect”.

The next test covers variants of B3. The conditions noted are these: with ntcp_human SLC10A1, Q14973.
Turning to G144W, the “effect of a mutation on the interaction” value was “with no effect”.

The variants in a further test derive from B4. Conditions: with cog4_human COG4, Q9H9E3.
As for V94D, the “effect of a mutation on the interaction” value was “with no effect”.

The variants in the next test derive from B5. The conditions noted are these: with cybc1_human CYBC1, Q9BQA9.
Turning to G123D, the “effect of a mutation on the interaction” value was “disrupting interaction strength”. On the same count and under the same terms, the entry for L47F is “disrupting interaction strength”. In the case of R6T, the “effect of a mutation on the interaction” value is recorded as “disrupting interaction strength”.

In the next test the parent is B6. The conditions noted are these: with FAM209A.
In the case of Y441S, the “effect of a mutation on the interaction” value is “disrupting interaction strength”.

The variants in another test derive from B7. Conditions: with znt4_human SLC30A4, O14863.
In the case of R6T, the “effect of a mutation on the interaction” value is given as “with no effect”. Still for that read-out and setting: the entry for L47F is “disrupting interaction strength”; for G123D it is “disrupting interaction strength”.

Variants of B8 are the subject of another test. The conditions noted are these: with mf14b_human MFSD14B.
As to G144W, the “effect of a mutation on the interaction” value is listed as “with no effect”.

Variants of B9 are the subject of the next test. The conditions noted are these: with msra_human MSRA.
As to V94D, the “effect of a mutation on the interaction” value is “with no effect”.

Variants of B10 are the subject of a further test. Conditions: with rcas1_human EBAG9, O00559.
For the variant G123D, the “effect of a mutation on the interaction” value is “with no effect”.

As to R6T, the “effect of a mutation on the interaction” value is reported as “with no effect”. The same measure, in the same setting: the entry for L47F is “with no effect”.
